4 molecules from article PMC7480041 (bioRxiv, 2020) can be followed below.

What all share (experiment): ELISA
In general terms: ELISA stands for enzyme-linked immunosorbent assay.

In assay [1] the target is recombinant SARS-CoV N protein (133–422) (SARS-CoV, UniProt P59595 133-422).
Assay [2] concerns the target T1, recombinant HuCoV-NL63 N protein (100–377) (HuCoV-NL63, UniProt Q6Q1R8 100-377).
T1 sequence: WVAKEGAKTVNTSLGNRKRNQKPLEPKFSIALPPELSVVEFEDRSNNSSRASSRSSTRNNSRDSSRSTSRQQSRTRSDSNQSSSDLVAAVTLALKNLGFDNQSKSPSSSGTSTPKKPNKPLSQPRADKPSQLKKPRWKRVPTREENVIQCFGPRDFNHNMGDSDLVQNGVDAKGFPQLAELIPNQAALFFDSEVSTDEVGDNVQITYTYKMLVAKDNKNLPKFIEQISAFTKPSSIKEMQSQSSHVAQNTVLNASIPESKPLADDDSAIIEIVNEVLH

Assay [3] concerns the target recombinant SARS-CoV N protein (133–422) (SARS-CoV, UniProt P59595).
Assay [4] addresses recombinant HuCoV-NL63 N protein (100–377) (HuCoV-NL63, UniProt Q6Q1R8).

recombinant SARS-CoV N protein (133–422) (SARS-CoV, UniProt P59595 133-422), sequence (P59595 133-422): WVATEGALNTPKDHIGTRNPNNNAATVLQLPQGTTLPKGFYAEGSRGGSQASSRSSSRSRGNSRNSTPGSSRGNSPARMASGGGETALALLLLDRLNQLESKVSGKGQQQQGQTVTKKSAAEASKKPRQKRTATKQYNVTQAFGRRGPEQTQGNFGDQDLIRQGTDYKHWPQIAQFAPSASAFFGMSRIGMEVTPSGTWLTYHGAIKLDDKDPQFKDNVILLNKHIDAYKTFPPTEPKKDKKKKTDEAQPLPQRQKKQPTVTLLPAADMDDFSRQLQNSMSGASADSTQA
recombinant SARS-CoV N protein (133–422) (SARS-CoV, UniProt P59595), sequence (P59595 133-422): as above

B1: mBG17 (antibody, V domains shown)
VH: EVKLEESGGGLVQPGGSMKFSCVASGFTFSDYWMNWVRQSPDKGLEWVAEIRLKSNNYATHYAASVKGRFTISRDDSKSSVYLQMNNLRAEDSGIYYCTRSAMDYWGQGTSVTVSS
VL: DIVMSQSPSSLAVSVGEKITMSCKSSQSLLYTSDQKNYLAWFQQKPGQSPKLLIFWASTRDSGVPDRFTGSGSGTDFTLTISSVKAEDLAVYYCQQFYNYPRTFGGGTKLEIK
Consider B1, for which the “corrected average ELISA signal” value stood at 1.39 in assay [1] and 0.54 in assay [2].

B2: mBG67 (antibody, V domains shown)
VH: EVQLVESGGGLVQPGGSLKLSCAASGFTFSNYGMSWVRQTPDKRLELVATINRNGGSTYYLDSVKVRFTISRDNAKSTLFLQLSSLKSDDTAMYYCARIYDFDEDYFDVWGAGTTVTVSS
VL: QIVLTQSPAIMSASLGERVTMTCTASSSVSSSYLHWYQQKPGSSPKLWIYSTSNLASGVPARFSGSGSGTSYSLTISSMEAEDAATYYCLQYHRSPWTFGGGTKLEIK
With B2, the “corrected average ELISA signal” value in assay [1] was 0.39.

B3: mBG21 (antibody, V domains shown)
VH: QIQLVQSGPELKKPGETVKISCKASGYTFTDYSMHWVKQAPGKGSKWMGWINTETGEPTYADDFKGRFAFSLETSASTAYLQINNLKNEDTATYFCALRRWGQGTLVTVSS
VL: IVMTQTPKFLLVSAGDRVTITCKASQSVSNDVAWFQQKPGQSPKKLLIYFASNRYTGVPDRFTGSGYGTDFTFTITTVQAEDLAVYFCQQDYSSPWTFGGGTKLEIK
Consider B3, for which the “corrected average ELISA signal” value was found to be 1.49 in assay [3] and 0.47 in assay [4].

B4: mBG22 (antibody, V domains shown)
VH: QIQLVQSGPELKKPGETVKISCKASGYTFTDYSMHWVKQAPGKGSKWMGWINTETGEPTYADDFKGRFAFSLETSASTAYLQINNLKNEDTATYFCALRRWGQGTLVTVSA
VL: IVMTQTPKFLLVSAGDRVTITCKASQSVSNDVAWFQQKPGQSPKLLIYFASNRYTGVPDRFTGSGYGTDFTFTITTVQAEDLAVYFCQQDYSSPWTFGGGTKLEIK
Consider B4, for which the “corrected average ELISA signal” value in assay [1] was 0.76; in assay [2], 0.51.
